Results as given in article PMC2756588.

T1: Fus1, P11710
T1 sequence (P11710 432-512, looked up): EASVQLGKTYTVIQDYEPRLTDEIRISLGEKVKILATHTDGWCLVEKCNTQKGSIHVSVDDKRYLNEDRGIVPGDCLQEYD

T2: Pex13, P80667
T2 sequence (P80667 295-386, looked up): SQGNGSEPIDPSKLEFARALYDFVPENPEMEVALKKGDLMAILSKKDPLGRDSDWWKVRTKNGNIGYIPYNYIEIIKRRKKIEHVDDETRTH

T3: Boi2, P39969
T3 sequence (P39969 32-116, looked up): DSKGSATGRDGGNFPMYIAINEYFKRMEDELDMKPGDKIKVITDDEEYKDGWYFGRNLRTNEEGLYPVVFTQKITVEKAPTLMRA

T4: Hse1, P38753
T4 sequence (P38753 208-285, looked up): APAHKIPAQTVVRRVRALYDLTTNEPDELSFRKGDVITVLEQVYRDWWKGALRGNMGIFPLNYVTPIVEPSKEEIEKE

T5: Cdc25, P04821
T5 sequence (P04821 50-136, looked up): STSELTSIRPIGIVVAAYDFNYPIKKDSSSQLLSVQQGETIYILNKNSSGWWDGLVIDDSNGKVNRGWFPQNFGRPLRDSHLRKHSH

T6: Lsb3, P43603
T6 sequence (P43603 385-451, looked up): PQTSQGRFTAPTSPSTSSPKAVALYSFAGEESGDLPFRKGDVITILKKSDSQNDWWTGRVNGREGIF

T7: Cyk3, Q07533
T7 sequence (Q07533 1-83, looked up): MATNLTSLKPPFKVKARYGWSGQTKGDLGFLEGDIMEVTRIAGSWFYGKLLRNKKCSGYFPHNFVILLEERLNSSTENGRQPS

T8: Boi1, P38041
T8 sequence (P38041 1-86, looked up): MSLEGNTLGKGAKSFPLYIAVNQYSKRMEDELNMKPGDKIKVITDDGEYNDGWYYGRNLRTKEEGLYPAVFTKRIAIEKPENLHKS

T9: Myo5, Q04439
T9 sequence (Q04439 1072-1160, looked up): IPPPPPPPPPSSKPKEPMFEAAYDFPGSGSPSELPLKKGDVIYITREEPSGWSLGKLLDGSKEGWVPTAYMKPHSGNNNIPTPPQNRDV

T10: Lsb1, P53281
T10 sequence (P53281 45-122, looked up): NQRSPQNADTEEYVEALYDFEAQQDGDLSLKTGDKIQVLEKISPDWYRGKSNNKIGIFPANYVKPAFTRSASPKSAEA

T11: Bud14, P27637
T11 sequence (P27637 247-328, looked up): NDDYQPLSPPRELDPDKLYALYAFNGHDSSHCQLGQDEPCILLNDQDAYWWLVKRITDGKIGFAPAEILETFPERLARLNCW

T12: Abp1, P15891
T12 sequence (P15891 535-592, looked up): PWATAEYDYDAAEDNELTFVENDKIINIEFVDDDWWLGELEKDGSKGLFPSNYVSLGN

T13: Sla1-2, P32790
T13 sequence (P32790 60-140, looked up): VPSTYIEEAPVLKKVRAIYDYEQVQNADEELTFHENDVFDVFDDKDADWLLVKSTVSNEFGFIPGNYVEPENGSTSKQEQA

T14: Lsb4, P32793
T14 sequence (P32793 402-468, looked up): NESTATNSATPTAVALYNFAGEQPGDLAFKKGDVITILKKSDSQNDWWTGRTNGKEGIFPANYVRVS

T15: Sla1-3, P32790
T15 sequence (P32790 344-424, looked up): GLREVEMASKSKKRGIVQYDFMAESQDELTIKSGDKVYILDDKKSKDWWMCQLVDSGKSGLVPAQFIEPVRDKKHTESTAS

T16: Hof1, Q05080
T16 sequence (Q05080 590-669, looked up): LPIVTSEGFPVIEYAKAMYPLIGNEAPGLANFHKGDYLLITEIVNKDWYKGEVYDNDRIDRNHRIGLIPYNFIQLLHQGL

T17: Bbc1, P47068
T17 sequence (P47068 1-78, looked up): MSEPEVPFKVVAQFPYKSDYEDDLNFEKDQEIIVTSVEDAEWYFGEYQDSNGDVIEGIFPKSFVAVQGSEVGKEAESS

T18: Nbp2, Q12163
T18 sequence (Q12163 103-180, looked up): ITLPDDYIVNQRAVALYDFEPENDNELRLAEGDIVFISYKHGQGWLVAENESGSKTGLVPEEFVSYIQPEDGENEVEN

T19: Pin3, Q06449
T19 sequence (Q06449 53-122, looked up): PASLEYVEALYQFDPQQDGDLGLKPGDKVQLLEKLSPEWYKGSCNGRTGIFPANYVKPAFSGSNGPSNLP

T20: Bzz1-1, P38822
T20 sequence (P38822 478-572, looked up): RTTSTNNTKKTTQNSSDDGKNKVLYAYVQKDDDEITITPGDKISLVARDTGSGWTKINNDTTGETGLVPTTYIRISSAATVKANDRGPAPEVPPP

T21: Bzz1-2, P38822
T21 sequence (P38822 568-633, looked up): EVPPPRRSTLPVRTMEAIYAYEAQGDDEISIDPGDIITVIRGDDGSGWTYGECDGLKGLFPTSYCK


Assays:
Assay in all cases: SPOT array
GST = conditions: median of control spots 978
Fus1, P11710 = biological target: T1, Fus1, P11710; conditions: median of control spots 1200
Pex13, P80667 = biological target: T2, Pex13, P80667; conditions: median of control spots 1341
Boi2, P39969 = biological target: T3, Boi2, P39969; conditions: median of control spots 1161
Hse1, P38753 = biological target: T4, Hse1, P38753; conditions: median of control spots 1727
Cdc25, P04821 = biological target: T5, Cdc25, P04821; conditions: median of control spots 969
Lsb3, P43603 = biological target: T6, Lsb3, P43603; conditions: median of control spots 406
Sho1, P40073 = conditions: median of control spots 1148
Cyk3, Q07533 = biological target: T7, Cyk3, Q07533; conditions: median of control spots 1451
Boi1, P38041 = biological target: T8, Boi1, P38041; conditions: median of control spots 1162
Myo5, Q04439 = biological target: T9, Myo5, Q04439; conditions: median of control spots 471
Lsb1, P53281 = biological target: T10, Lsb1, P53281; conditions: median of control spots 388
Bud14, P27637 = biological target: T11, Bud14, P27637; conditions: median of control spots 956
Abp1, P15891 = biological target: T12, Abp1, P15891; conditions: median of control spots 935
Sla1-2, P32790 = biological target: T13, Sla1-2, P32790; conditions: median of control spots 712
Lsb4, P32793 = biological target: T14, Lsb4, P32793; conditions: median of control spots 397
Sla1-3, P32790 = biological target: T15, Sla1-3, P32790; conditions: median of control spots 5475
Hof1, Q05080 = biological target: T16, Hof1, Q05080; conditions: median of control spots 4086
Bbc1, P47068 = biological target: T17, Bbc1, P47068; conditions: median of control spots 796
Nbp2, Q12163 = biological target: T18, Nbp2, Q12163; conditions: median of control spots 357
Pin3, Q06449 = biological target: T19, Pin3, Q06449; conditions: median of control spots 2171
Rvs167, P39743 = conditions: median of control spots 2707
Bem1-1, P29366 = conditions: median of control spots 4282
Bzz1-1, P38822 = biological target: T20, Bzz1-1, P38822; conditions: median of control spots 4446
Bem1-2, P29366 = conditions: median of control spots 4347
Bzz1-2, P38822 = biological target: T21, Bzz1-2, P38822; conditions: median of control spots 4538
Myo3, P36006 = conditions: median of control spots 468

Chain of Bem1-2, P29366 (P29366 139-227): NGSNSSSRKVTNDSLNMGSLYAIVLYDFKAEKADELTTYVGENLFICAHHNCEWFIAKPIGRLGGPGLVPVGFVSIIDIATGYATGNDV
Chain of Rvs167, P39743 (P39743 419-482): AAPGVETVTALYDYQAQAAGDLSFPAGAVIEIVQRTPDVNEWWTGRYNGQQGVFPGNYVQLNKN
Chain of Bem1-1, P29366 (P29366 55-141): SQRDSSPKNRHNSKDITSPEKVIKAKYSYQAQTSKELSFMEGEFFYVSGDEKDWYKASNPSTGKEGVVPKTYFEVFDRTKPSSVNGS
Chain of Sho1, P40073 (P40073 287-367): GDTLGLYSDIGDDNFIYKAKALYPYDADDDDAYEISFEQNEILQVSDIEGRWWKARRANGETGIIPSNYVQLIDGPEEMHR

Row | Binder | SPOT intensity (GST) | SPOT intensity (Fus1, P11710) | SPOT intensity (Pex13, P80667) | SPOT intensity (Boi2, P39969) | SPOT intensity (Hse1, P38753) | SPOT intensity (Cdc25, P04821) | SPOT intensity (Lsb3, P43603) | SPOT intensity (Sho1, P40073) | SPOT intensity (Cyk3, Q07533) | SPOT intensity (Boi1, P38041) | SPOT intensity (Myo5, Q04439) | SPOT intensity (Lsb1, P53281) | SPOT intensity (Bud14, P27637) | SPOT intensity (Abp1, P15891) | SPOT intensity (Sla1-2, P32790) | SPOT intensity (Lsb4, P32793) | SPOT intensity (Sla1-3, P32790) | SPOT intensity (Hof1, Q05080) | SPOT intensity (Bbc1, P47068) | SPOT intensity (Nbp2, Q12163) | also measured
1 | RLSFFFPLDPAYIRN | 1 | 159 | 21 | 0 | 91 | 28 | 0 | 68 | 1 | 6 | 0 | 0 | 12 | 28 | 0 | 0 | 113 | 48 | 12 | 21 | SPOT intensity (Pin3, Q06449): 13; SPOT intensity (Rvs167, P39743): 0; SPOT intensity (Bem1-1, P29366): 0; SPOT intensity (Bzz1-1, P38822): 0; SPOT intensity (Bem1-2, P29366): 43; SPOT intensity (Bzz1-2, P38822): 3; SPOT intensity (Myo3, P36006): 4
2 | LTRRFPFLFPFDTRM | 0 | 100 | 16 | 0 | 126 | 21 | 0 | 57 | 3 | 6 | 0 | 0 | 21 | 18 | 1 | 4 | 129 | 116 | 69 | 16 | SPOT intensity (Pin3, Q06449): 18; SPOT intensity (Rvs167, P39743): 0; SPOT intensity (Bem1-1, P29366): 1; SPOT intensity (Bzz1-1, P38822): 3; SPOT intensity (Bem1-2, P29366): 61; SPOT intensity (Bzz1-2, P38822): 3; SPOT intensity (Myo3, P36006): 4
3 | GERSRPLVISILSSA | 0 | 3 | 39 | 0 | 0 | 16 | 0 | 38 | 0 | 2 | 0 | 0 | 14 | 16 | 1 | 4 | 0 | 0 | 0 | 2 | SPOT intensity (Pin3, Q06449): 26; SPOT intensity (Rvs167, P39743): 0; SPOT intensity (Bem1-1, P29366): 0; SPOT intensity (Bzz1-1, P38822): 3; SPOT intensity (Bem1-2, P29366): 0; SPOT intensity (Bzz1-2, P38822): 1; SPOT intensity (Myo3, P36006): 5

Now from value to binder, other results behind:

Row | SPOT intensity (GST) | SPOT intensity (Fus1, P11710) | SPOT intensity (Pex13, P80667) | SPOT intensity (Boi2, P39969) | SPOT intensity (Hse1, P38753) | SPOT intensity (Cdc25, P04821) | SPOT intensity (Lsb3, P43603) | SPOT intensity (Sho1, P40073) | SPOT intensity (Cyk3, Q07533) | SPOT intensity (Boi1, P38041) | SPOT intensity (Myo5, Q04439) | SPOT intensity (Lsb1, P53281) | SPOT intensity (Bud14, P27637) | SPOT intensity (Abp1, P15891) | SPOT intensity (Sla1-2, P32790) | SPOT intensity (Lsb4, P32793) | SPOT intensity (Sla1-3, P32790) | SPOT intensity (Hof1, Q05080) | SPOT intensity (Bbc1, P47068) | SPOT intensity (Nbp2, Q12163) | Binder | also measured
4 | 0 | 0 | 10 | 2 | 2 | 22 | 0 | 31 | 1 | 8 | 0 | 0 | 26 | 16 | 1 | 0 | 2 | 1 | 24 | 2 | NAGIRPKFILALNDE | SPOT intensity (Pin3, Q06449): 3; SPOT intensity (Rvs167, P39743): 4; SPOT intensity (Bem1-1, P29366): 0; SPOT intensity (Bzz1-1, P38822): 2; SPOT intensity (Bem1-2, P29366): 0; SPOT intensity (Bzz1-2, P38822): 6; SPOT intensity (Myo3, P36006): 0
5 | 1 | 0 | 5 | 0 | 0 | 7 | 0 | 85 | 0 | 0 | 0 | 0 | 14 | 79 | 0 | 4 | 1 | 0 | 17 | 1 | HGKRRAPLLLAKLDV | SPOT intensity (Pin3, Q06449): 9; SPOT intensity (Rvs167, P39743): 0; SPOT intensity (Bem1-1, P29366): 0; SPOT intensity (Bzz1-1, P38822): 0; SPOT intensity (Bem1-2, P29366): 0; SPOT intensity (Bzz1-2, P38822): 1; SPOT intensity (Myo3, P36006): 5
6 | 0 | 180 | 18 | 1 | 3 | 42 | 3 | 67 | 0 | 2 | 4 | 1 | 8 | 26 | 2 | 5 | 4 | 6 | 2 | 1 | HHKRRPTTIDVPGLT | SPOT intensity (Pin3, Q06449): 28; SPOT intensity (Rvs167, P39743): 0; SPOT intensity (Bem1-1, P29366): 22; SPOT intensity (Bzz1-1, P38822): 0; SPOT intensity (Bem1-2, P29366): 28; SPOT intensity (Bzz1-2, P38822): 13; SPOT intensity (Myo3, P36006): 7
